The term IC50 denotes the point on the concentration scale where inhibition reaches its midpoint. Read a high IC50 as a need for much substance.

Where two headings read alike, the source gives them in different places.

Five molecules from PMC3674885 can be followed below.

Data set [1] deals with TrkA receptor (rat) on MG139 cells (rat) (UniProt P35739).
Data set [2] addresses both classes of receptors (TrkA and p75) on PC12 cells (rat (endogenous in PC12)). Kind of data set: radioligand binding.
Data set [3] concerns the target TrkA receptor (rat) on MG139 cells (rat) (UniProt P35739). Kind of data set: radioligand binding.
Data set [4] concerns the target both classes of receptors (TrkA and p75) on PC12 cells (rat (endogenous in PC12)). Kind of data set: radioligand binding. This is another data set of the same source.
Data set [5] concerns the target TrkA receptor (rat) on MG139 cells (rat) (UniProt P35739). Kind of data set: radioligand binding. The source holds these as a separate data set.
The target of data set [6] is high-affinity site on PC12 cells (cold-temperature, cold-chase stable binding) (rat (endogenous in PC12)). Kind of data set: radioligand binding.
In data set [7] the target is 7-84-103 NGF mutein (F7A/H84A/R103A). Kind of data set: native gel or EMSA + other: high-performance ion-exchange chromatography. The following applies: native gel or EMSA + other: high-performance ion-exchange chromatography (HPIEC). For orientation: In EMSA bound probe runs differently from free probe, usually more slowly.

Sequence of UniProt P35739 (P35739 33-799): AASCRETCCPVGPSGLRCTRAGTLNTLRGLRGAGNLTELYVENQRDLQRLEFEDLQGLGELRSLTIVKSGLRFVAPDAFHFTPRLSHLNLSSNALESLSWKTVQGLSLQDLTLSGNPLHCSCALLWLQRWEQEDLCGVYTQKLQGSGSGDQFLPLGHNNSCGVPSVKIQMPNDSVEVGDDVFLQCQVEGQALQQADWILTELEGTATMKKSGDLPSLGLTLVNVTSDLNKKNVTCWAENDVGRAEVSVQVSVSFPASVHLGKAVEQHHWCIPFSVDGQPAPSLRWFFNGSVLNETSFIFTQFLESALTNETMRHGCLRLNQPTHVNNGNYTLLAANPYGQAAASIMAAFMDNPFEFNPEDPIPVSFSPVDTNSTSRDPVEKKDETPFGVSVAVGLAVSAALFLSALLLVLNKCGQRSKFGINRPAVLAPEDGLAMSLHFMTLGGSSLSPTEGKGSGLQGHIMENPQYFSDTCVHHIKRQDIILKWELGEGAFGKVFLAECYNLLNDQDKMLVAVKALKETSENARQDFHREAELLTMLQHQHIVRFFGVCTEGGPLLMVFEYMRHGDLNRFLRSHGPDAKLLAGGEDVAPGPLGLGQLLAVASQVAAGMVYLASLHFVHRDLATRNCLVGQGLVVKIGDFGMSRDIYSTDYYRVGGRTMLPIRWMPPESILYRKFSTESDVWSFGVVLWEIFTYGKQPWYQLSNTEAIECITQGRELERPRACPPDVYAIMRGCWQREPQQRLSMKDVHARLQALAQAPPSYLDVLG

In the case of “7-84-103 NGF mutein (F7A/H84A/R103A) (ligand)”, the XTT assay of survival of MG139 cells (TrkA+/p75-), 72 hr, EC50 in data set [1] came out at 17 nM. The trypan blue survival assay of PC12 cells (TrkA+/p75+), 72 hr, EC50 in data set [1] is 1.26 nM. For the same molecule, the IC50 in data set [2] amounted to 1.9 nM; in data set [3] it was 11.5 nM; in data set [4] it was 2.45 nM; in data set [5] it was 15 nM.
Turning to “Heteromutein 1 (heterodimer of the Δ9/13 and 7-84-103 NGF muteins) (from UniProt P01139 122-241) (complex)”, the XTT assay of survival of MG139 cells (TrkA+/p75-), 72 hr, EC50 in data set [1] came to 19 nM. In data set [1], this molecule returned a neurite outgrowth of PC12 cells, 48 hr, EC50 of 1.8 nM. The trypan blue survival assay of PC12 cells (TrkA+/p75+), 72 hr, EC50 in data set [1] amounted to 0.47 nM. The IC50 came to 0.53 nM in data set [2], 0.67 nM in data set [3], 0.59 nM in data set [4] and 0.64 nM in data set [5].
On to “wild-type nerve growth factor (unlabelled) (from UniProt P01139 122-241) (ligand)”, for which the trypan blue survival assay of PC12 cells (TrkA+/p75+), 72 hr, EC50 in data set [1] was determined as 0.28 nM. Also, the IC50 was 0.03 nM in data set [3] and 0.25 nM in data set [4].
As for “Δ9/13 NGF mutein (from UniProt P01139 122-241) (ligand)”, the IC50 in data set [2] amounted to 0.51 nM; in data set [4] it was 0.46 nM. Further, the percent of ^125I-NGF binding left at the plateau of the competition curve in data set [4] was 20%. The percent of the cold-chase stable ^125I-NGF binding competed away in data set [6] worked out at 27%.

B1: Δ9/13 NGF mutein (protein)
chain: SSTHPVFHMGEFSVCDSVSVWVGDKTTATDIKGKEVTVLAEVNINNSVFRQYFFETKCRASNPVESGCRGIDSKHWNSYCTTTHTFVKALTTDEKQAAWRFIRIDTACVCVLSRKATRRG
As to B1, in data set [7], the “percent of the protein as heterodimer Htm1 in the 1:1 mixture (Mix1a)” value is reported as 40% in Mix1a and the “percent of the protein as heterodimer Htm1 in the 1:2 mixture (Mix1)” value is reported as 37.5% in Mix1.
